Bounds are passed on as bounds.

Experiment [1] deals with T1, Human PF4 (CXCL4), biotinylated, without heparin (human, UniProt P02776 32-101, biotinylated with EZ-link-Sulfo-NHS-LC-Biotin (sites not given)).
T1 construct: Immobilised on streptavidin biosensors for BLI; also called PF4 alone; platelet factor 4
T1 sequence: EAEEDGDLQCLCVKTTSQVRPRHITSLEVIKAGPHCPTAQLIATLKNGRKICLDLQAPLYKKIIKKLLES
The experiment is described as follows: BLI (Octet), biotinylated PF4 without heparin on streptavidin sensors, 1:1 model; scFv at 0.25 µg/mL (response near baseline). As to the method: (§1) All data was analyzed based on a 1:1 homogenous ligand binding model using Octet® User Software version 3.1.
(§2) The Octet-QK Red 96 (FortéBio, Menlo Park, CA) instrumentation was used to conduct all BLI experiments. A 96-well microtiter plate (black, flat-bottom) was used to hold 200 μL per well of either sample or buffer. Pre-coated streptavidin biosensor tips (FortéBio) were hydrated in phosphate buffered saline (PBS) containing 1% bovine serum albumin (BSA, Sigma-Aldrich) before performing all kinetic assays. Each step was performed at an operating temperature of 23° C. with agitation at 1000 rpm. Streptavidin tips were first equilibrated in PBS+1% BSA to establish a baseline. […] The PF4-coated tips were then dipped into PBS+1% BSA for 13 minutes to re-establish a baseline. Tips were then incubated in an analyte solution containing half-fold dilutions of wildtype scFv (4.0, 2.0, 1.0, 0.5, 0.25 μg/mL in PBS+1% BSA) for 10 minutes to measure association. For mutant scFv association, tips were incubated in an analyte solution containing 200 μL of each mutant and wildtype scFv at a final concentration of 1 μg/mL in PBS+1% BSA. […] The following negative controls included in these kinetic experiments were also measured: 200 μL of buffer to replace both the antigen and scFv and 200 μL buffer replacing scFv only. […]
Background: Biolayer interferometry detects binding as a change in optical thickness at a sensor tip.

Experiment [2] deals with T2, PF4/heparin complex (human PF4 complexed with heparin) (human, UniProt P02776 32-101).
T2 construct: Multimeric complex of PF4 with heparin (not a protein); In the EIAs: PF4 captured on biotinylated heparin on streptavidin plates; In the SRA: platelets with 0.2 U/mL heparin; also called PF4 and heparin complexes
T2 sequence: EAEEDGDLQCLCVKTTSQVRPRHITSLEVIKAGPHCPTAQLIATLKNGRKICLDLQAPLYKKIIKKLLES
Kind of experiment: BLI (Octet), biotinylated PF4/heparin on streptavidin sensors, 1:1 model; scFv at 0.5 µg/mL (response near baseline, software limit value). As to the method:
(§3) The Octet-QK Red 96 (FortéBio, Menlo Park, CA) instrumentation was used to conduct all BLI experiments. A 96-well microtiter plate (black, flat-bottom) was used to hold 200 μL per well of either sample or buffer. Pre-coated streptavidin biosensor tips (FortéBio) were hydrated in phosphate buffered saline (PBS) containing 1% bovine serum albumin (BSA, Sigma-Aldrich) before performing all kinetic assays. Each step was performed at an operating temperature of 23° C. with agitation at 1000 rpm. Streptavidin tips were first equilibrated in PBS+1% BSA to establish a baseline. […] The PF4-coated tips were then dipped into PBS+1% BSA for 13 minutes to re-establish a baseline. Tips were then incubated in an analyte solution containing half-fold dilutions of wildtype scFv (4.0, 2.0, 1.0, 0.5, 0.25 μg/mL in PBS+1% BSA) for 10 minutes to measure association. For mutant scFv association, tips were incubated in an analyte solution containing 200 μL of each mutant and wildtype scFv at a final concentration of 1 μg/mL in PBS+1% BSA. Antibody dissociation steps were performed by dipping sensors in wells containing PBS+1% BSA for 56 minutes. The following negative controls included in these kinetic experiments were also measured: 200 μL of buffer to replace both the antigen and scFv and 200 μL buffer replacing scFv only. Each experiment was performed with PF4 or with PF4/heparin as the immobilized antigen. […]

Experiment [3] addresses T1, Human PF4 (CXCL4), biotinylated, …. Kind of experiment: BLI (Octet), biotinylated PF4 without heparin on streptavidin sensors, 1:1 model; scFv at 1.0 µg/mL. As to the method: (§4) The Octet-QK Red 96 (FortéBio, Menlo Park, CA) instrumentation was used to conduct all BLI experiments. A 96-well microtiter plate (black, flat-bottom) was used to hold 200 μL per well of either sample or buffer. Pre-coated streptavidin biosensor tips (FortéBio) were hydrated in phosphate buffered saline (PBS) containing 1% bovine serum albumin (BSA, Sigma-Aldrich) before performing all kinetic assays. Each step was performed at an operating temperature of 23° C. with agitation at 1000 rpm. Streptavidin tips were first equilibrated in PBS+1% BSA to establish a baseline. […] The PF4-coated tips were then dipped into PBS+1% BSA for 13 minutes to re-establish a baseline. Tips were then incubated in an analyte solution containing half-fold dilutions of wildtype scFv (4.0, 2.0, 1.0, 0.5, 0.25 μg/mL in PBS+1% BSA) for 10 minutes to measure association. For mutant scFv association, tips were incubated in an analyte solution containing 200 μL of each mutant and wildtype scFv at a final concentration of 1 μg/mL in PBS+1% BSA. Antibody dissociation steps were performed by dipping sensors in wells containing PBS+1% BSA for 56 minutes. The following negative controls included in these kinetic experiments were also measured: 200 μL of buffer to replace both the antigen and scFv and 200 μL buffer replacing scFv only. Each experiment was performed with PF4 or with PF4/heparin as the immobilized antigen.
(§5) BLI experiments were performed to evaluate binding responses and affinities of wildtype and mutant scFv. Biotinylated PF4 alone or complexed with heparin was immobilized on streptavidin biosensors and used to capture wildtype scFv. Half-fold serial dilutions of wildtype scFv ranging from 0.25 μg/mL to 4 μg/mL were used to determine the optimal concentrations for future experiments PF4 (PF4 FIG. 3; PF4/heparin FIG. 4).

For experiment [4], the target named is T2, PF4/heparin complex (human PF4 …). Kind of experiment: BLI (Octet), biotinylated PF4/heparin on streptavidin sensors, 1:1 model; scFv at 0.5 µg/mL (response near baseline). As to the method:
as §3

Experiment [5] addresses T1, Human PF4 (CXCL4), biotinylated, …. Kind of experiment: BLI (Octet), biotinylated PF4 without heparin on streptavidin sensors, 1:1 model; scFv at 0.5 µg/mL. The procedure: as §4, §5
The target in experiment [6] is T2, PF4/heparin complex (human PF4 …). The experiment is described as follows: BLI (Octet), biotinylated PF4/heparin on streptavidin sensors, 1:1 model; scFv at 0.25 µg/mL (response near baseline, software limit value). As to the method:
as §3

Experiment [7] shares this target. The experiment is described as follows: BLI (Octet), biotinylated PF4/heparin on streptavidin sensors, 1:1 model; scFv at 4.0 µg/mL. The procedure:
as §4, §5

Experiment [8] has the same target. The experiment is described as follows: BLI (Octet), biotinylated PF4/heparin on streptavidin sensors, 1:1 model; scFv at 0.25 µg/mL (response near baseline). As to the method: as §3
Experiment [9] deals with T1, Human PF4 (CXCL4), biotinylated, …. The experiment is described as follows: BLI (Octet), biotinylated PF4 without heparin on streptavidin sensors, 1:1 model; scFv at 0.25 µg/mL (response near baseline, software limit value). As to the method:
as §1, §2

B1: Wildtype scFv (KKO-derived single chain variable fragment) (scFv)
scFv: DIQMIQSQKFMSTSVGDRVTVTCKASQNVGTNVAWYQQKPGQSPNALIYSASYRYSGVPDRFTGSGSGTDFTLTITNVQSEDLADYFCQQYNSYPLTFGTGTKLDLKGGGGSGGGGSGGGGSVQLQQSGAELVKPGASVKLSCKASGYTFTNYFIYWVKQRPGQGLEWIGEINPRNGDTDFNEKFESRATLTVDKSSSTAYMQLSSLTSEDSAIYYCTRSPYGNNYGFTYWGQGTLVTVSA
notes: VL-(G4S)3 linker-VH; expressed in E. coli BL21 from pADL-22c, purified on Ni-NTA as histidine-tagged scFv, about 28 kDa; also called WT; KKO-scFv; not shown: histidine tag from the pADL-22c vector
Usually koff stands for the rate constant with which the complex falls apart. High values mean fast dissociation, low ones slow dissociation. Broadly, the Kd is the equilibrium constant for the complex coming apart. As usually defined, the kon is the rate constant with which the complex forms. A high value points to fast association. With B1, the dissociation rate constant (koff) in [1] was 0.021 s⁻¹; in experiment [3] it was 0.000853 s⁻¹; in experiment [4], 0.00504 s⁻¹; in experiment [5], 0.0037 s⁻¹; in experiment [7], 0.000871 s⁻¹; in experiment [8] it was 0.00042 s⁻¹. For the same molecule, the Kd was below 0.001 nM in [2]; 5.71 nM in experiment [3]; 34.5 nM in experiment [5]; below 0.001 nM in experiment [6]; 39.3 nM in [7]; below 0.001 nM in experiment [9]. For the same molecule, the figures for the kon in [3], in [5] and in experiment [7] were 149000 M⁻¹ s⁻¹, 107000 M⁻¹ s⁻¹ and 22200 M⁻¹ s⁻¹, respectively.

The record behind these values is US20250011413A1 (MCMASTER UNIVERSITY, published 2025).
